{"source": "patent US20200131263A1", "about": "(JIANGSU HENGRUI MEDICINE, published 2020)", "key": {"[1]": {"target": "cynomolgus GITR (cyno-GITR) (cynomolgus)", "assay": "ELISA, cyno GITR coated at 1 ug/ml", "description": "(§1) The GITR proteins from different species (mouse/cyno GITR) were diluted to 1 μg/ml with PBS buffer pH 9.5, and 50 μl/well was added to a 96-well microplate, which was incubated overnight (16-18 hours) at 4° C. The buffer in the plate was discarded prior to adding 300 μl/well of 1% BSA blocking buffer diluted with PBS, and the plate was incubated for blocking for 2.5h at 37° C. in an incubator. After blocking, the blocking buffer was discarded, and the plate was washed three times with PBST buffer (pH 7.4 PBS containing 0.05% tween-20). 50 μl/well antibodies to be tested were added to the plate, wherein the antibodies were diluted to different concentrations with sample diluent (pH7.4 PBS), and the plate was incubated at 37° C. in an incubator for 30 minutes. After incubation, the reaction buffer in the microplate was discarded prior to washing the plate with PBST three times, and 50 μL/well of Peroxidase AffiniPure Goat Anti-Human secondary antibody (JacksonImmunoResearch, 109-035-088) which was diluted with sample diluent was added, and the plate was incubated at 37° C. for 1 hour. […] The absorption value at 450 nm was read by a MD plus 384 microplate reader."}, "[2]": {"target": "T1, human GITR with mFc tag (huGITR-mFc) (human)", "T1 chain": "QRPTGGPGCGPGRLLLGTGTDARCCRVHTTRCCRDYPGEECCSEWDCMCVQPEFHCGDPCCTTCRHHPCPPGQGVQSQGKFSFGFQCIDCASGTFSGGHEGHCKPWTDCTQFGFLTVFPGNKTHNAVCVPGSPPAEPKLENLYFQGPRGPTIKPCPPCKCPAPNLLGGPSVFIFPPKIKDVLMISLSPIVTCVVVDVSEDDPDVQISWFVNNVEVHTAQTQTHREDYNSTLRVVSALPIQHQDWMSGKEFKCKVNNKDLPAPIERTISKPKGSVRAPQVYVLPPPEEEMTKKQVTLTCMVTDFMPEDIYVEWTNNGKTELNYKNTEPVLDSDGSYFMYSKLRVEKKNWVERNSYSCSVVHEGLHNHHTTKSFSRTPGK", "assay": "ELISA, huGITR-mFc coated at 1 ug/ml", "description": "The huGITR-mFc was diluted to 1 μg/ml with CBS buffer pH 9.5, added to the 96-well microplate at 50 μl/well, and incubated overnight at 4° C. The supernatant was discarded prior to 300 μl/well of 1% BSA blocking buffer diluted with PBS to the wells, and the plate was incubated for 2.5h at 37° C. in an incubator for blocking. After blocking, the blocking buffer was discarded, and the plate was washed three times with PBST buffer (pH 7.4 PBS containing 0.05% tween-20). 50 μl/well of the antibodies to be tested were added, with the antibodies being diluted to different concentrations with sample diluent, and the plate was incubated at 37° C. in an incubator for 30 minutes. The plate was then washed with PBST three times, and 50 μL/well of Peroxidase AffiniPure Goat Anti-Human secondary antibody (Jackson immune research, 115-035-088) diluted with sample diluent was added, followed by incubating at 37° C. for 30 minutes. After washing the plate with PBST three times, 50 μl/well of TMB chromogenic substrate was added and the plate was incubated at room temperature for 5 minutes prior to adding 50 μl/well of 1M […] to terminate the reaction. The absorption value at 450 nm was read by a MD plus 384 microplate reader. The data were analyzed with SoftMax Pro6.2.1 to obtain binding EC50 values of the anti-GITR antibodies to GITR, as shown in Table 1."}, "mouse GITR": {"target": "T2, mouse GITR (mouse, UniProt O35714 20-153, limits assumed)", "T2 sequence (looked up)": "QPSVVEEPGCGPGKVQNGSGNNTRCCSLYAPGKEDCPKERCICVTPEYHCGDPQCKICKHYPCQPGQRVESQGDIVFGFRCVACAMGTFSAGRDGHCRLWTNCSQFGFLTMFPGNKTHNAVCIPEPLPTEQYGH", "assay": "ELISA, mouse GITR coated at 1 ug/ml", "description": "as §1"}, "[3]": {"target": "T1, human GITR with mFc tag (huGITR-mFc)", "assay": "ELISA, blocking of GITRL-His binding to coated GITR-Fc", "description": "huGITR-mFc was diluted to 2 μg/ml with CBS buffer pH 9.5, added to the 96-well microplate at a volume of 50 μl/well, and incubated overnight at 4° C. The supernatant was discarded prior to adding 300 μl/well of 1% BSA blocking buffer diluted with PBS, and the plate was incubated for blocking for 2.5h at 37° C. in an incubator. After blocking, the blocking buffer was discarded, and the plate was washed three times with PBST buffer (pH 7.4 PBS containing 0.05% tween-20) prior to adding antibodies for pre-incubation, wherein the antibodies were diluted into gradient concentrations with sample diluent. 0.15 μg/ml of GITRL-His protein in a volume of 50 μl/well was added, mixed and incubated at 37° C. in an incubator for 30 minutes. The reaction buffer was then discarded, the plate was washed with PBST three times, and 50 μL/well of Peroxidase AffiniPure Goat Anti-Human secondary antibody diluted with sample diluent at a ratio of 1:4000 was added, then the place was incubated at 37° C. for 30 minutes. After washing the plate with PBST three times, 50 μl/well of TMB chromogenic substrate was added and the plate was incubated at room temperature for 5 minutes prior to adding 50 μl of 2M H₂SO₄ to terminate the reaction. The absorption value at 450 nm was read by a MD plus 384 microplate reader. The EC50 values of GITR antibodies binding to GITR were obtained by analyzing the data with SoftMax Pro6.2.1, as shown in Table 1."}, "[4]": {"target": "T3, human h-GITR-his antigen (Sino Biological, Cat. #13643-H08H) (human, UniProt Q9Y5U5 26-161)", "T3 construct": "Bought protein; also called GITR antigen; not shown: His tag", "T3 sequence (looked up)": "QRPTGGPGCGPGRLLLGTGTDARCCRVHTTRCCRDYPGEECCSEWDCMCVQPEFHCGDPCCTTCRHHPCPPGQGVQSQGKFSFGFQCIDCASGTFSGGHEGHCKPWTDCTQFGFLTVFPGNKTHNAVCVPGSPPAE", "assay": "SPR (Biacore T200), antibody captured on Protein A chip, h-GITR-his as analyte, 1:1 Langmuir fit", "description": "The affinities of humanized anti-GITR antibodies to be tested and human GITR were measured by Biacore, GE instruments.\nA Protein A biosensor chip (Cat. 29-1275-56, GE) for a Biacore Instrument (Biacore T200, GE) was used to affinity-capture a certain amount of antibodies to be tested, and then a series of concentration gradients of GITR antigen (human h-GITR-his antigen was selected from Sino Biological Company (Cat. #13643-H08H)) were flowed through the surface of the chip. Real-time reaction signals were detected by a Biacore Instrument (Biacore T200, GE), thus obtaining the binding and dissociation curves. The biochip was rinsed and regenerated with 10 mM glycine pH 1.5 after each dissociation cycle, and the buffer was PBST, pH7.4. The experimental data were fitted with (1:1) Langmuir model using Biacore T200 Evaluation 2.0, GE software, and the affinity values were obtained, as shown in Table 2."}}}
{"binder": "mouse monoclonal antibody 18F10 (antibody, V domains shown, Mouse antibody from a hybridoma) VH: QVQLQQSGAELVRPGVSVKISCKCSGYTFTGYDLHWVKQSHAKSLDWIGVISTYYGDANYNQKFKGKATMTVDKSSSTAYMELARLTSEDSAIYYCTRLAESYFFDYWGQGTTLTVSS VL: QILLTQSPAIMSASPGEKVTMTCRASSSVSYIHWYQQKPGSSPKPWIYDTSDLASGFPARFSGTGSGTSYSLIISSMEAEDAATYYCHQRSSYPFTFGSGTKLEIK", "values": [{"measurement": "EC50", "setting": "[1]", "value": 0.744, "unit": "nM"}, {"measurement": "EC50", "setting": "[2]", "value": 0.103, "unit": "nM"}, {"measurement": "binding result", "setting": "mouse GITR", "value": "no binding"}, {"measurement": "IC50", "setting": "[3]", "value": 6.04, "unit": "nM"}]}
{"binder": "mouse monoclonal antibody 16G9 (antibody, V domains shown, Mouse antibody from a hybridoma) VH: QVQLQQSGAELAKPGASVKMSCKASGYTFTTYWIHWIKQRPGQGLEWIGYINPSTGYTDYNQNFKDKATLTADQYSSTAYMQLSSLTFEDSAVYYCANYYGSTPYYWGRGTTLTVSS VL: QIVLTQSPAIMSASPGEKVTMTCSASSSVTYVHWYQQKSGASPERWIFDASKLASGVPARFSGSGSGTSYSLTISSMETEDAATYYCQQWSSNPLTFGAGTKLELK", "values": [{"measurement": "EC50", "setting": "[2]", "value": 0.075, "unit": "nM"}, {"measurement": "IC50", "setting": "[3]", "value": 10.3, "unit": "nM"}]}
{"binder": "humanized anti-GITR antibody hu18F10 (antibody, human IgG1, kappa, V domains shown) VH: QVQLVQSGAEVVKPGASVKVSCKASGYTFTGYDLHWVRQAPGQGLEWIGVISTYYGDANYNQKFQGRVTMTVDTSSSTAYMELSRLRSEDTAVYYCTRLAESYFFDYWGQGTTLTVSS VL: EIVLTQSPATLSASPGERVTLTCRASSSVSYLHWYQQKPGQAPKPWIYDTSNLASGFPARFSGDGSGTDYTLTISSLEAEDAAVYYCHQRSSYPFTFGSGTKLEIKR", "values": [{"measurement": "Kd", "setting": "[4]", "value": 0.33, "unit": "nM"}, {"measurement": "koff", "setting": "[4]", "value": 0.000204, "unit": "s⁻¹"}, {"measurement": "kon", "setting": "[4]", "value": 613000, "unit": "M⁻¹ s⁻¹"}]}
{"binder": "mouse monoclonal antibody 8A11 (antibody, V domains shown, Mouse antibody from a hybridoma) VH: EVKLVESGGGLVKPGGSLKLSCAASGFTFSSYAMSWVRQTPEKRLEWVAYISSGGSTYYPDSVKGRFTISRENARNILYLQMSSLRSEDTAMYYCAREGYGTYGDYWGQGTTLTVSS VL: DIVMSQSPSSLAVSVGEKVTMSCKSSQSLLYSTNQKNYLAWYQQKPGQSPKLLIYWASTRESGVPDRFTGSGSGTDFTLTISSVKAEDLAVYYCQQYYSYLRTFGGGTKLEIK", "values": [{"measurement": "EC50", "setting": "[1]", "value": 5.21, "unit": "nM"}, {"measurement": "EC50", "setting": "[2]", "value": 0.077, "unit": "nM"}, {"measurement": "binding result", "setting": "mouse GITR", "value": "no binding"}, {"measurement": "IC50", "setting": "[3]", "value": 7.57, "unit": "nM"}]}
{"binder": "mouse monoclonal antibody 7D9 (antibody, V domains shown, Mouse antibody from a hybridoma) VH: DVQLQESGPGLVKPSQSLSLTCTVTGYSITSDYAWNWIRQFPGNKLEWLGYISYSGSTYYNPSLKSRISLTRDTSKNQFFLQLNSVTSEDTATYYCARWDYRYDGRGFDYWGQGTTLTVSS VL: DIQMTQSPSSLSASLGERVSLTCRASQDIGSGLNWLQQEPDGTIKRLIYATSSLDSGVPKRFSGSRSGSDYSLTISSLESEDFVDYNCLQYTSTPWTFGGGTKLEIK", "values": [{"measurement": "EC50", "setting": "[2]", "value": 0.055, "unit": "nM"}, {"measurement": "IC50", "setting": "[3]", "value": 3.89, "unit": "nM"}]}
{"binder": "reference antibody BMAB (Merck's MK-4166 antibody) (antibody, V domains shown) VH: QVQLQQSGAEVKKPGSSVRVSCKASGGTFNNNAINWVRQAPGQGLEWMGGIIPMFGTAKYSQNFQGRVAITADESTGTASMELSSLRSEDTAVYYCARSRDLLLFPHHALSPWGRGTMVTVSS VL: SSELTQDPAVSVALGQTVRVTCQGDSLRSYYASWYQQKPGQAPVLVIYGKNNRPSGIPDRFSGSSSGNTASLTITGAQAEDEADYYCSSRDSSGNHWVFGGGTELTVLG", "values": [{"measurement": "EC50", "setting": "[2]", "value": 0.074, "unit": "nM"}, {"measurement": "IC50", "setting": "[3]", "value": 1.39, "unit": "nM"}, {"measurement": "Kd", "setting": "[4]", "value": 0.185, "unit": "nM"}]}
{"binder": "humanized anti-GITR antibody hu8A11 (antibody, human IgG1, kappa, V domains shown, also called h8A11) VH: EVQLVESGGGLVQPGGSLRLSCAASGFTFSSYAMSWVRQAPGKGLEWVAYISSGGSTYYPDSVKGRFTISRDNAKNSLYLQMNSLRAEDTAVYYCAREGYGTYGDYWGQGTTLTVSS VL: DIVMTQSPSSLAVSVGERVTISCKSSQSLLYSTNQKNYLAWYQQKPGQSPKLLIYWASTRESGVPDRFSGSGSGTDFTLTISSLQAEDVAVYYCQQYYSYLRTFGGGTKLEIKR", "values": [{"measurement": "Kd", "setting": "[4]", "value": 0.62, "unit": "nM"}, {"measurement": "koff", "setting": "[4]", "value": 0.000104, "unit": "s⁻¹"}, {"measurement": "kon", "setting": "[4]", "value": 168000, "unit": "M⁻¹ s⁻¹"}]}
